{"source": "patent US20090311710A1", "about": "“MUTAGENESIS METHODS USING RIBAVIRIN AND/OR RNA REPLICASES” (priority 2002, published 2009)", "molecules": {"B1": {"name": "Wild-type: wild-type TEM-1 β-lactamase (bla) gene for antibiotic resistance (protein, UniProt P62593 24-286, looked up)", "Beta-lactamase TEM": "HPETLVKVKDAEDQLGARVGYIELDLNSGKILESFRPEERFPMMSTFKVLLCGAVLSRVDAGQEQLGRRIHYSQNDLVEYSPVTEKHLTDGMTVRELCSAAITMSDNTAANLLLTTIGGPKELTAFLHNMGDHVTRLDRWEPELNEAIPNDERDTTMPAAMATTLRKLLTGELLTLASRQQLIDWMEADKVAGPLLRSALPAGWFIADKSGAGERGSRGIIAALGPDGKPSRIVVIYTTGSQATMDERNRQIAEIGASLIKHW"}}, "system": "TEM-1 Θ-lactamase (bla) gene expressed in bacteria", "test": "Cefotaxime resistance (MIC) conferred by mutant bla clones", "assay_type": "cell-based", "details": "bla clone expressed in bacteria; listed as wild-type bla gene", "text": "T7 RNA polymerase with the addition of 1000TM ribavirin 5′ triphosphate (dTRV) was used to transcribe (−) RNA from the bla gene θ-lactamase gene for antibiotic resistance) on plasmid pEGX205. The bla RNA was subsequently converted to cDNA using M-MuLV-reverse transcriptase, amplified with Pfu DNA polymerase, cut with appropriate restriction enzymes, and cloned into the plasmid pEGX212. Clones resistant to increased concentrations of cefotaxime were selected and sequenced (the minimum inhibitory concentration [MIC] for the wild-type bla gene was 0.02 ug/ml). […] When clone CefR E1 RNA was taken through a second round of T7 polymerase/dTRV mutagenesis, 3 clones containing 3 or more mutations were selected with one clone (F-E1-1) showing a 10,000-fold increase in cefotaxime resistance over the wild-type. No resistant mutants were isolated in the mutation/selection experiments that used T7 polymerase alone."}
{"molecule": "B1", "values": [{"measurement": "cefotaxime minimum inhibitory concentration (MIC)", "result": 0.02, "unit": "µg/mL"}]}
